From patent publication US8003345B2, “Antioxidant pharmaceutical compound, method for producing polypeptide and method of cure” (Institute of Cell Biophysics Russian Academy of Sciences, priority 2002, dated 2011)

Key:
[1] = test system: tracheal epithelium of rat after burn with vapors of hydrochloric acid; assay: Chemical burn (HCl vapors) of the upper respiratory tract of rat; assay type: in vivo
Procedure: The therapeutic properties of recombinant peroxiredoxin Prx V1hum in treating the upper respiratory tract of rat 24 hours after a burn were tested on a group of 4 Wistar line rats having a weight of 150-200 grams. The rats were analgized with analgin (100 mg/kg weight) and placed for 10 minutes into an exsiccator saturated with HCl vapors (the exsiccator volume was 10 liters, 20 animals were used). After the chemical burn, the rats were maintained for a definite period of time (40 min, 6 hrs, 1 day, 2 days, 14 days, 30 days), then narcotized with hexenal (300 mg/kg weight), and a sample of the tracheal epithelial tissue was isolated. For histochemical investigations the isolated sample was placed into a fixing solution containing 2% of formaldehyde and 0.5% of glutaraldehyde. The tissue was dehydrated .by sequential routing through ethyl alcohol with increasing concentration (40-100%). The tissue was embedded into LR white resin. The resin was polymerized at room temperature. 0.5 em-thick sections were made on an LKB ultratome (Sweden), using glass knives. The sections were stained with a hematoxylin-eosine and analyzed under a light microscope.
Maximum degradation of the epithelium is observed 24 hours after the burn, the ciliated cells which provide the mucus flow in the trachea being almost absent. Two weeks later a partial restoration of the ciliated cells is observed. […]

[2] = test system: tracheal epithelium of rat after application of lipopolysaccharide; assay: Inflammation of rat tracheal epithelium caused by lipopolysaccharide (LPS); assay type: in vivo

B1: Prx VIhum: recombinant full-size human peroxiredoxin Prx VI, 224 amino acids (SEQ ID NO: 1), produced in E.coli (protein)
chain: MPGGLLLGDVAPNFEANTTVGRIRFHDFLGDSWGILFSHPRDFTPVCTTELGRAAKLAPEFAKRNVKLIALSIDSVEDHLAWSKDINAYNCEEPTEKLPFPIIDDRNRELAILLGMLDPAEKDEKGMPVTARVVFVFGPDKKLKLSILYPATTGRNFDEILRVVISLQLTAEKRVATPVDWKDGDSVMVLPTIPEEEAKKLFPKGVFTKELPSGKKYLRYTPQP
[1]; 14 days after burn, application started 24 hours after burn, once a day during 5 days, FIG. 7
  regeneration of tracheal epithelium (curative effect): almost complete regeneration of the ciliary cells of the epithelium
[1]; application 1 hour after the burn, epithelium 24 hours after chemical burn, FIG. 6
  preservation of tracheal epithelial cells (protector effect): Almost complete preservation of all epithelial cells
[2]; Treatment 24 hours later for 5 days and the integrity of epithelium 2 weeks later
  Integrity of tracheal epithelium (according to histological data): 80%
[2]; after 2 weeks, single application into the trachea immediately after LPS, FIG. 9
  restoration of the epithelial tissue: almost complete restoration of the epithelial tissue
